B1: NS3/4a PI (protein)
chain: MAPITAYAQQTRGLLGCIITSLTGRDKNQVEGEVQIVSTAAQTFLATCINGVCWTVYHGAGTRTIASPKGPVIQMYTNVDQDLVGWPAPQGSRSLTPCTCGSSDLYLVTRHADVIPVRRRGDSRGSLLSPRPISYLKGSSGGPLLCPAGHAVGIFRAAVCTRGVAKAVDFIPVENLETTMRSPVFTDNSSPPVVPQSFQVAHLHAPTGSGKSTKVPAAYAAQGYKVLVLNPSVAATLGFGAYMSKAHGIDPNIRTGVRTITTGSPITYSTYGKFLADGGCSGGAYDIIICDECHSTDATSILGIGTVLDQAETAGARLVVLATATPPGSVTVPHPNIEEVALSTTGEIPFYGKAIPLEVIKGGRHLIFCHSKKKCDELAAKLVALGINAVAYYRGLDVSVIPPIGDVVVVATDALMTGYTGDFDSVIDCNTCVTQTVDFSLDPTFTIETITLPQDAVSRTQRRGRTGRGKPGIYRFVAPGERPSGMFDSSVLCECYDAGCAWYELTPAETTVRLRAYMNTPGLPVCQDHLEFWEGVFTGLTHIDAHFLSQTKQSGENLPYLVAYQATVCARAQAPPPSWDQMWKCLIRLKPTLHGPTPLLYRLGAVQNEITLTHPVTKYIMTCMSADLEVVTSTWVLVGGVLAALAAYCLSTGCVVIVGRVVLSGKPAIIPDREVLYREFDEMEEC
With B1 the “proteolytic cleavage (SDS-PAGE and anti-hSOD Western blot after 30 minutes at room temperature)” value (MEFA 7.1) was “the NS3/4a cleaved MEFA 7.1 (lane 5, FIGS. 14A and 14B)” and the “proteolytic cleavage (SDS-PAGE and anti-hSOD Western blot after 30 minutes at room temperature)” value (MEFA 7.2) was “MEFA 7.2, on the other hand, showed no degradation (lane 6, FIGS. 14A and 14B)”.

Source: patent US20080299544
